From the DeepSol protein solubility set

Assay: soluble on expression in E. coli; label from the status in PepcDB or PDB records

Sequence | soluble on expression in E. coli
TVVNDPSCESVVTTPQHSLRDANSPAGLLSIAEETLAEFLSKATGTAVDWVQMPGMKPGPDSVGIFAISQRCNGVAARACGLVSLEPMKIAEILKDRPSWFRDCRSLEVFTMFPAGNGGTIELVYMQTYAPTTLAPARDFWTLRYTTSLDNGSFVVCERSLSGSGAGPNAASASQFVRAEMLSSGYLIRPCDGGGSIIHIVDHLNLEAWSVPDVLRPLYESSKVVAQKMTISALRYIRQLAQESNGEVVYGLGRQPAVLRTFSQRLSRGFNDAVNGFGDDGWSTMHCDGAEDIIVAINSTKHLTNISNSV | soluble
MGSDKIHHHHHHMSELTQLFPQPLWQWFAQICAIPHPSKHEQALSLHIQQWAKDKGLSVIEDKVGNLIIKKPAFAGMEDRKKVVLQAHLDMVPQKNADKVHNFETDPIEAYIDGDWVKAKGTTLGSDNGIGMASALAILGSDSIKHGPLEVLLTIDEEAGMTGAFGLEAGMLEAEILINTDSEQEGEIYMGCAGGVDGQISLPMSWQSPEQSNSSFNLTLSGLKGGHSGVNIHLGRGNANKLLARFLFDYADDLALELVSFSGGSLRNAIPREASISFMLPPENLTALNQAIADFQALVREELAIADPGMLLTLVEVPAHTKVMGEDSQNTLIDLLHVCPNGVIRMSDEVEGVTETSLNVGVISTHDDSVEILCLIRSLIDSGRSEVTGMITALTHLAGADVEFSGAYPGWKPDTSSPVMAIVRETYNDIYHKDPTVMVIHAGLECGLFKEPYPAMDMVSIGPTIRYPHSPDEMVNITTVGQYWQLLLAVLERIPVRG | not soluble
MGSDKIHHHHHHMASKEEQYAAFYQFLETLDCYLTTTNALENEVAQFKENPHREIAGFMLASSETIDVPKGFIRMLYCLEQDGYAYLDQQRCSFSAGQVMIVNEATSVSYQGQGMSMIIFYFKKHYFLDTLLNQLAEEPVMYRFFTEIASSEFENIPRYFVFASQPNSDVHVYSLLLLKQIVKMAYFNNKVTKAAFVLLVVELGQLPREALKMQDNYLSNHQRVEVILAYIEQQIAHVTLAEVAAKFHFHPNYLSNFLKEKTNKTFTEIVLAYRIQLAKNYLKQTDLSIQTIVERIGYQDKAFFYKRFKEEMGMTPKQYRQKEGMADVRRSL | not soluble
MSKLQQILTYLESEKLDVAVVSDPVTINYLTGFYSDPHERQMFLFVLADQEPLLFVPALEVERASSTVSFPVVGYVDSENPWQKIKHALPQLDFKRVAVEFDNLILTKYHGLKTVFETAEFDNLTPRIQRMRLIK | soluble
MGSDKIHHHHHHMKAVIFDDFGSPDVLRIADVQRPVATTATVLVKVMAVAVNHVDTFVRSGTFKTALAAPHVAGRDLVGEVVASSQPDFQIGDQVWTNSMGYEGRMGATAEYVAVPTDRLYHVPDGVAPMPLVAAVHSAATAAIVLNDVMEICSGQTLLIEGAAGNVGRKLIQLAHQMGVTVVITASPRDFARCQQLGSTACYDYHAGFADQLTTDQWTFDHVIDTSGRVPLAINLALLRLGGQVTLITAPQDNQFEFPVRQFYMSQQRITGFVISHATVDQLAQAASRLNRAFSAGLLLDDQVSQRYFKDAAQCHAQLEAGTDHHQRFVLLPS | not soluble
MKKATMLTYLEEQLEKHLGDYEVGLDWDRKNHTIEVIVRLYAENNEQVAIDDVDGTLSEEEFIEFEDGLLFYNPQKSVVDDEEYLVTIPYEGKKGLRKAVLDGFIHYLKVVLDEGQSDLLDFLSDETAEVFELHWEPADFEAMIKKVAETEKEQWIAYPSY | not soluble
GFPERELPRPGASRPAEKSRPPEAKGAQPADAWKAGRPRSEEDNELNLPNLAAAYSSILRSLGEDPQRQGLLKTPWRAATAMQFFTKGYQETISDVLNDAIFDEDHDEMVIVKDIDMFSMCEHHLVPFVGRVHIGYLPNKQVLGLSKLARIVEIYSRRLQVQERLTKQIAVAITEALQPAGVGVVIEATHMCMVMRGVQKMNSKTVTSTMLGVFREDPKTREEFLTLIRS | soluble
MGSDKIHHHHHHMRNLGNTNMKIKRVGFGGIPIQRITQDDTNLVINELEKQGINFIDSARGYTISEEAIGIAIEGKRDKFFLATKSMSRDYDSMKRDVEISLNNFKTDFIDLYQFHNVKEEEYDNLFKDKMAYSALLEAKEQGKIKHIGITSHNLNTIEKAIEDGKFDTIQFPYNIVEGQADEVFKKAHEKGIGIIVMKPLAGGALDNATLAIKYILSKDYIDVVIPGMESVEQVRQNVAVLENLVLDEKDNKEIEEIRNSLGKKFCRRCEYCMPCAVGINIPLSFLCEGYYTRYGLKEWAKEKYEVMDVKPTECIDCGLCESRCPYELPIREMLKTVVEKLG | not soluble
MNSFRWDIYFETGIEDVDDQHQYLVEFINKYGKLLTRNTISIADIQSALFELSRYAEFYFKEEENLMREVGIHHEHLQKHIQVHRTFMGDIVSMQSFINEDNRQSAEQLLDFLIHWLAYHILGIDQNMAKQIKAIERGVSPLEAYREQEQQANASTEP | soluble
MVLIIVRTLLMRISIKMIPLAYLNHFRKEHMKSRIHWAALGLLAAFAAQAETVTIEHRLGKTTLEQKPQRVVVIGVGALDAIDSFGIEPVAVSKFDGTPDYLAKYKSDKYPSAGSLFEPDFETIYTQKPDLIVIGPRASKSYDELSKIAPTIVFAAEADQGYWESTQQQWRNLGKVFAIEPAVEAKIEQVDAQFKSIMQYNQQHKSDAMLVMSSGGNLTTFGANSRFSSVYKDFGFSETVPVSKESSHGDLISFEYIREHNPKTLLVVDRDKVVTKGETNIRQTFENDLVKATTAYKNGHIAYLDVNAWYIAISGVKATEQMVADMKASVGMQ | not soluble
GYITVGNENSTPIELYYEDQGSGQPVVLIHGYPLDGHSWERQTRELLAQGYRVITYDRRGFGGSSKVNTGYDYDTFAADLHTVLETLDLRDVVLVGFSMGTGELARYVARYGHERVAKLAFLASLEPFLVQRDDNPEGVPQEVFDGIEAAAKGDRFAWFTDFYKNFYNLDENLGSRISEQAVTGSWNVAIGSAPVAAYAVVPAWIEDFRSDVEAVRAAGKPTLILHGTKDNILPIDATARRFHQAVPEADYVEVEGAPHGLLWTHADEVNAALKTFLAK | soluble
MSLTHTVHLHLEETDNLALQRLCGSFDNNLDLLAKALDIHISRRFEHFTFNGAFAHAGKRALLKLLETAQTRDLNDGDIRLAAVEAQTEDAGHQEKNHDHAYYFRTKRGSIGGRTPRQNGYIRALLNHDIVFGLGPAGTGKTYLAVAAAVDAMEKHQVERIILVRPAVEAGEKLGFLPGDLTQKVDPYLRPLYDALYDLMGFDRVTKLIEKGLIEIAPLAYMRGRTLNGAYIILDEAQNTTPEQMKMFLTRIGFGAKAVITGDTSQIDLPKNIKSGLKDAREKLHNVEGLYFHTFTGEDVVRHPLVQKIVEAYESAEHDEGGSHHHHHH | soluble
MSNVLIINAMKEFAHSKGALNLTLTNVAADFLRESGHQVKITTVDQGYDIESEIENYLWADTIIYQMPAWWMGEPWILKKYIDEVFTDGHGRLYQSDGRTRSDATKGYGSGGLIQGKTYMLSVTWNAPREAFTDPEQFFHGVGVDGVYLPFHKANQFLGMKPLPTFMCNDVIKQPDIEGDIARYRQHLAENVNS | not soluble
MKKGINRVVLVGTGAVGCSYAYCMINQAVAEEFVLVDVNEAKAEGEAMDLSHAVPFAPAPTRVWKGSYEDCKDADLVVITAGLPQKPGETRLDLVEKNAKIFKQIVRSIMDSGFDGIFLIATNPVDILTYVTWKESGLPKERVIGSGTTLDSARFRYMLGEYFNIGPHNIHAYIIGEHGDTELPVWSHVSVGIQKLQTLLEKDNTYNQEDLDKIFINVRDAAYHIIERKGATYYGIGMSLLRVTKAILNDENSVLTVSAYLEGQYGQKDVYIGVPAVLNRGGVREILEVELSEDEELKFDHSVQVLKETMAPVL | not soluble
MREPGFWHRPPSLVSRLLLPIAAIYGNIAAARMQKAGTTVGVPVLCVGNYHMGGAGKTPTTLALVALLREFGETPVVLSRGYGGRLQGPVQVDPSRHSAADIGDEPLMMARRVPVVVARDRTDGAALACALGATVILMDDGFQNPALTKDASLIVVDSHRSIGNGSVFPAGPLRAPLPLQVARTDALVVVGDGTAADGLAQQITTKGGVVLRARLVPEPASVEALRGRRVLAFAGIGDPARFVATLRDSGVEVVEQRAFADHHPFTAEELAELAAAAKRDGLTLVTTEKDLARIGGAQQALGVEIVPFAVTLAFGDEAKLRLFLLDRLNGARAAKLAGRRMAGDPLEHHHHHH | not soluble
STQTSRVTLVGEMLPAYNEILTPEALSFLKELHENFNERRIELLQKRMKKQQKIDAGEFPKFLEETKRIREADWTIAKLPKDLEDRRVEITGPVDRKMVINALNSGAHLFMADFEDSNSPTWENAIEGQINLRDAVKGTISHKNENGKEYRLNSKTAVLIVRPRGWHLEEKHMQVDGKNMSGSLVDFGLYFFHNAKALLEKGSGPYFYLPKMESYLEARLWNDVFVFAQKYIGIPNGTIKATVLLETIHASFEMDEILYELKDHSAGLNCGRWDYIFSFLKAFRNHNEFLLPDRAQVTMTAPFMRAYSLKVIQTCHRRNAPAIGGMAAQIPIKNNPEANEAAFEKVRADKEREALDGHDGTWVAHPGLVPVAMEVFNHIMKTPNQIFRKREEIHVTEKDLLEVPVGTITEEGLRMNISVGIQYIASWLSGRGAAPIYNLMEDAATAEISRAQVWQWIRHEGGKLNDGRNITLELMEELKEEELAKIEREIGKEAFKKGRFQEATTLFTNLVRNDEFVPFLTLPGYEIL | soluble
MKEKYRHSLKARFFLKDNFLKSEPVFWFHACSYGEVKSLEPIIHALKEPILISVTTNTGFELAAQTYQHSKHIEVRYLPFETLLFAWKKNLKRLKTLVVTEAELWFNVFDTAQKLGAKTMLINARISVRSYPKYQRFSFFYALLFKRIDLILAQSKEDKKRLLNLGAKKVVDFLNIKRFSKPLEHHHHHH | not soluble
MIPDDEFIKNPSVPGPTAMEVRCLIMCLAEPGKNDVAVDVGCGTGGVTLELAGRVRRVYAIDRNPEAISTTEMNLQRHGLGDNVTLMEGDAPEALCKIPDIDIAVVGGSGGELQEILRIIKDKLKPGGRIIVTAILLETKFEAMECLRDLGFDVNITELNIARGRALDRGTMMVSRNPVALIYTGVSHENKD | soluble
MANKKNKVKFNICNVHYAPITVADEGKVSFGTPVAMPGAVSISMDPTGEPESFYADGIEYYVINNNQGYDGDLELAMIPETFRTDILKEEADSNNVLVENANSETGSFALLFEFDGDIRKIRHVLYNCSASRPTIESKTNEEDKEVQTETLTIKARPMADGYVKAKTGDSTTDTVYNNWYKSVYLPNSLEHHHHHH | soluble
AIATANLAATDDWGELLDVLDPGDPTGSRVIARYDRLRVHREGLLHRSVHVCVVRSVPDWPAQVHGLRNTNYKLLLQRRSESKAIAPGCWDLSCAEHLRAGESFEGAAVRGLQEELGLALAPDQQTTPIHALDDGEPALQLYDYPSVGLTDYEWNRIYVVFVTDQADEALAKLKLDSAEVAQVRWITRESLQMELAENPSHFTPWFRDQARKHLLPSAYN | soluble
MHHHHHHSSGRENLYFQGTLSALAVDLGGTNLRVAIVSMKGEIVKKYTQFNPKTYEERINLILQMCVEAAAEAVKLNCRILGVGISTGGRVNPREGIVLHSTKLIQEWNSVDLRTPLSDTLHLPVWVDNDGNCAALAERKFGQGKGLENFVTLITGTGIGGGIIHQHELIHGSSFCAAELGHLVVSLDGPDCSCGSHGCIEAYASGMALQREAKKLHDEDLLLVEGMSVPKDEAVGALHLIQAAKLGNAKAQSILRTAGTALGLGVVNILHTMNPSLVILSGVLASHYIHIVKDVIRQQALSSVQDVDVVVSDLVDPALLGAASMVLDYTTRR | soluble
MAHHHHHHMKRWDEKLTLALRRGSGSDDVTPNPVSEALRNLEETMESIKRRLSQLEKCVERQRVAINEVRTNTSPFDDLLTKTNGDIQSIQQQLEYVVISLERERGIVTDHTEQLRLFVRESTRRDGGRSGLSDSDPSFLFLLATWLYRPVVDFANGCYVLLSPLIGTLQSLSLFNPDVQVRQTESGVYLNNAQPSEDLLSRLQKGQLDPVLTSKT | not soluble
